These sequences were tested on Escherichia coli TOP10 (assay: shrunken log2 fold change of peptide-encoding DNA abundance (4.5 h post-induction vs induction); higher = less antimicrobial activity (less host growth inhibition)). Conditions: time post-induction: 4.5 h; library: site-saturation at positions 5, 18, 19, 20.
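Note: peptides expressed intracellularly from a pBAD plasmid library in pooled LB shake-flask culture, induced with 0.3% L-arabinose, DNA abundance read by NGS, three biological replicates, DESeq2 with apeglm shrinkage.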

| Sequence | shrunken log2 fold change |
| --- | --- |
| RRIRQRPPRLPRPRPRPDCNPRP | 0.167 |
| RRIRLRPPRLPRPRPRPYWCPRP | -0.00992 |
| RRIRVRPPRLPRPRPRPTKWPRP | 0.0808 |
| RRIRQRPPRLPRPRPRPVPDPRP | 0.106 |
| RRIRMRPPRLPRPRPRPNTRPRP | 0.371 |
| RRIRERPPRLPRPRPRPDHYPRP | -0.738 |
| RRIRGRPPRLPRPRPRPMKDPRP | 0.55 |
| RRIRHRPPRLPRPRPRPIHNPRP | -0.545 |
| RRIRPRPPRLPRPRPRPSYHPRP | -0.641 |
| RRIRQRPPRLPRPRPRPFCMPRP | -0.0373 |
| RRIRCRPPRLPRPRPRPRVLPRP | 3.12 |
| RRIRIRPPRLPRPRPRPDRHPRP | -0.504 |
| RRIRNRPPRLPRPRPRPESYPRP | -0.0446 |
| RRIRNRPPRLPRPRPRPMFPPRP | -0.235 |
| RRIRDRPPRLPRPRPRPFWGPRP | 0.127 |
| RRIRRRPPRLPRPRPRPTFQPRP | 0.204 |
| RRIRPRPPRLPRPRPRPTAYPRP | -0.203 |
| RRIRRRPPRLPRPRPRPIHAPRP | -0.102 |
| RRIRYRPPRLPRPRPRPSQSPRP | -0.804 |
| RRIRQRPPRLPRPRPRPEFGPRP | -0.0374 |
| RRIRYRPPRLPRPRPRPHFMPRP | -0.0918 |
| RRIRQRPPRLPRPRPRPGPFPRP | 0.0672 |

| Sequence | shrunken log2 fold change |
| --- | --- |
| RRIRIRPPRLPRPRPRPCMPPRP | -0.908 |
| RRIRGRPPRLPRPRPRPWYQPRP | 0.0417 |
| RRIRGRPPRLPRPRPRPSYHPRP | -0.299 |
| RRIRQRPPRLPRPRPRPAETPRP | 0.0338 |
| RRIRTRPPRLPRPRPRPMMFPRP | -0.0404 |
| RRIRARPPRLPRPRPRPVPEPRP | 0.499 |
| RRIRNRPPRLPRPRPRPSGVPRP | -0.0499 |
| RRIRTRPPRLPRPRPRPHTLPRP | -0.792 |
| RRIRPRPPRLPRPRPRPYKHPRP | -0.777 |
| RRIRARPPRLPRPRPRPHPVPRP | 0.277 |
| RRIRYRPPRLPRPRPRPYFSPRP | -1.16 |
| RRIRNRPPRLPRPRPRPPKCPRP | 0.189 |
| RRIRVRPPRLPRPRPRPKAGPRP | 0.0641 |
| RRIRMRPPRLPRPRPRPHWIPRP | -0.0869 |
| RRIRHRPPRLPRPRPRPATMPRP | -0.123 |
| RRIRPRPPRLPRPRPRPSLDPRP | -0.0512 |
| RRIRCRPPRLPRPRPRPEDHPRP | -0.0393 |
| RRIRHRPPRLPRPRPRPYGSPRP | -0.0135 |
| RRIRMRPPRLPRPRPRPNNLPRP | -0.259 |
| RRIRMRPPRLPRPRPRPWGPPRP | 0.106 |
| RRIRNRPPRLPRPRPRPAKMPRP | -0.0794 |
| RRIRQRPPRLPRPRPRPDWIPRP | -0.035 |

| Sequence | shrunken log2 fold change |
| --- | --- |
| RRIRIRPPRLPRPRPRPYDTPRP | -0.0277 |
| RRIRGRPPRLPRPRPRPYERPRP | -1.8 |
| RRIRKRPPRLPRPRPRPSMVPRP | -0.13 |
| RRIRKRPPRLPRPRPRPPDKPRP | 0.474 |
| RRIRRRPPRLPRPRPRPCDVPRP | -0.0838 |
| RRIRNRPPRLPRPRPRPLFDPRP | -0.298 |
| RRIRERPPRLPRPRPRPKLGPRP | 0.12 |
| RRIRQRPPRLPRPRPRPRQEPRP | 0.0978 |
| RRIRYRPPRLPRPRPRPVWYPRP | -0.105 |
| RRIRKRPPRLPRPRPRPHERPRP | 0.231 |
| RRIRTRPPRLPRPRPRPPGVPRP | 0.182 |
| RRIRIRPPRLPRPRPRPQVIPRP | -0.0417 |
| RRIRIRPPRLPRPRPRPCNMPRP | -0.0732 |
| RRIRGRPPRLPRPRPRPRTSPRP | 0.763 |
| RRIRARPPRLPRPRPRPGTLPRP | 0.22 |
| RRIRMRPPRLPRPRPRPCGMPRP | 0.134 |
| RRIRIRPPRLPRPRPRPCNDPRP | -0.0787 |
| RRIRRRPPRLPRPRPRPISGPRP | 0.0239 |
| RRIRARPPRLPRPRPRPDPNPRP | 0.531 |
| RRIRFRPPRLPRPRPRPCEEPRP | 0.178 |
| RRIRYRPPRLPRPRPRPMHIPRP | -0.0235 |
| RRIRNRPPRLPRPRPRPFYWPRP | -0.0682 |

| Sequence | shrunken log2 fold change |
| --- | --- |
| RRIRIRPPRLPRPRPRPCQEPRP | -0.119 |
| RRIRMRPPRLPRPRPRPNFAPRP | 0.318 |
| RRIRCRPPRLPRPRPRPMHIPRP | -0.241 |
| RRIRMRPPRLPRPRPRPHLSPRP | -0.0805 |
| RRIRNRPPRLPRPRPRPTFEPRP | -0.0715 |
| RRIRMRPPRLPRPRPRPPVHPRP | 0.595 |
| RRIRPRPPRLPRPRPRPPAQPRP | 0.57 |
| RRIRTRPPRLPRPRPRPWYNPRP | -0.325 |
| RRIRHRPPRLPRPRPRPQAPPRP | -0.0401 |
| RRIRGRPPRLPRPRPRPDADPRP | 3.64 |
| RRIRNRPPRLPRPRPRPQKAPRP | -0.0017 |
| RRIRKRPPRLPRPRPRPQMRPRP | 0.292 |
| RRIRVRPPRLPRPRPRPKTGPRP | -0.048 |
| RRIRMRPPRLPRPRPRPPWPPRP | 1.1 |
| RRIRDRPPRLPRPRPRPKNTPRP | -0.226 |
| RRIRHRPPRLPRPRPRPYNAPRP | -0.00175 |
| RRIRPRPPRLPRPRPRPGPVPRP | 0.258 |
| RRIRDRPPRLPRPRPRPATAPRP | 0.722 |
| RRIRNRPPRLPRPRPRPHTDPRP | -0.373 |
| RRIRWRPPRLPRPRPRPRYGPRP | 0.134 |
| RRIRERPPRLPRPRPRPGAEPRP | 0.372 |
| RRIRFRPPRLPRPRPRPQADPRP | 0.0728 |

| Sequence | shrunken log2 fold change |
| --- | --- |
| RRIRRRPPRLPRPRPRPLKCPRP | 0.0734 |
| RRIRSRPPRLPRPRPRPTVWPRP | 0.185 |
| RRIRGRPPRLPRPRPRPYHKPRP | -0.331 |
| RRIRKRPPRLPRPRPRPHEAPRP | -0.022 |
| RRIRSRPPRLPRPRPRPIRWPRP | 0.0723 |
| RRIRWRPPRLPRPRPRPNLAPRP | 0.0306 |
| RRIRHRPPRLPRPRPRPLWMPRP | -0.138 |
| RRIRKRPPRLPRPRPRPFIVPRP | -0.345 |
| RRIRLRPPRLPRPRPRPTRWPRP | 0.456 |
| RRIRSRPPRLPRPRPRPPEDPRP | 0.0304 |
| RRIRKRPPRLPRPRPRPNMSPRP | -0.0139 |
| RRIRKRPPRLPRPRPRPINEPRP | -0.215 |
| RRIRSRPPRLPRPRPRPVFTPRP | 0.00672 |
| RRIRGRPPRLPRPRPRPIVKPRP | 0.328 |
| RRIRMRPPRLPRPRPRPATPPRP | 1.24 |
| RRIRGRPPRLPRPRPRPMIMPRP | -0.0509 |
| RRIRYRPPRLPRPRPRPRKVPRP | -0.208 |
| RRIRSRPPRLPRPRPRPMCRPRP | -0.147 |
| RRIRSRPPRLPRPRPRPYHWPRP | -0.479 |
| RRIRSRPPRLPRPRPRPRVDPRP | 0.0568 |
| RRIRIRPPRLPRPRPRPSYEPRP | -0.53 |
